Experimental data as given in patent publication US20190321466A1 (CTTQ AKESO SHANGHAI BIOMED TECH, published 2019).

Biological target: T1, PD1 antigen obtained by cleaving PD1-mFc with TEV protease, labeled with biotin (UniProt Q15116 25-170, limits assumed, labeled with biotin (site not stated))
T1 construct: also called antigen PD1
Test: Fortebio Octet, biotin-PD1 on SA sensor, antibody in solution
Source text: 2. […] The dissociation of antigen and antibody were also in PBST.

T1 sequence (Q15116 25-170 limits assumed): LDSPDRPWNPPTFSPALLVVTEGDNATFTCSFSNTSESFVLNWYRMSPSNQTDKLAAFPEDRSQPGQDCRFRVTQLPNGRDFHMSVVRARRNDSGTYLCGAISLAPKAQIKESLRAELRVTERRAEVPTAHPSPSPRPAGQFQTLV

B1: monoclonal antibody 14C12 (secreted by hybridoma cell line LT003) (antibody, V domains shown)
VH: EVKLVESGGGLVKPGGSLKLSCAASGFAFSSYDMSWVRQTPEKRLEWVATISGGGRYTYYPDSVKGRFTISRDNARNTLYLQMSSLRSEDTALYYCANRYGEAWFAYWGQGTLVTVSA
VL: DIKMTQSPSSMYASLGERVTFTCKASQDINTYLSWFQQKPGKSPKTLIYRANRLVDGVPSRFSGSGSGQDYSLTISSLEYEDMGIYYCLQYDEFPLTFGAGTKLEL
notes: Mouse antibody purified from hybridoma supernatant; also called PD1-14C12
- Kd: 0.0181 nM
- koff: 6.12e-06 s⁻¹
- kon: 338000 M⁻¹ s⁻¹
